The RNAGym collection of RNA variant scans (doi:10.7554/elife.90254)

B1: LINE1-mini (parent)
chain: GGCAGAGCUCAACACAGCGUGGCAAAGUGGCUGUGGCUAGACUGCC

Variants of: B1
Test: self-cleavage, relative activity (ratio to wild type); higher = more cleavage; in vitro, sequencing; the parent is a self-cleaving ribozyme

Variant	self-cleavage
A39U C45A	0.18
A12G A41G	0.03
U28G G44A	0.28
C10A U38A	0.15
G35C U38G	0.02
C15G A39C	0.02
A11C G22C	0.04
C8U A14C	0.15
G2U C45G	0.23
C37G C45G	0.08
A6G C46A	0.13
C13A G44C	0.07
G33C G44U	0.04
G36A A39U	0.22
G7C G29A	0.13
C15U G36C	0.06
G2C C8A	0.17
C13G G19U	0.11
A4G U38C	0.31
U9A C46G	0.12
A12U C13G	0.48
A41C C46A	0.05
G17U G33C	0.02
C13U G27C	0.06

Variant	self-cleavage
C13G G17U	0.06
C3U C15G	0.08
C10U U38A	0.04
A14G G33U	0.16
A16G G22A	0.71
A26C	0.9
C13U C37G	0.1
G5A G36A	0.28
U20C G44A	0.12
A16U U43C	0.04
A16U U43A	0.05
G2C G17C	0.05
G2C G17A	0.08
A4U G40C	0.07
G7U C46G	0.09
U9G G21C	0.08
G7A C15G	0.12
C31A U43A	0.08
U9G U32C	0.05
A12C G35U	0.03
U28G U32A	0.05
A14G	0.58
C10A A16C	0.04
C8G C37G	0.09

Variant	self-cleavage
U9C G44U	0.02
G33A G35A	0.07
G30A C42G	0.05
A4C C8G	0.07
C15A G35A	0.1
A6C C23G	0.43
G1U A26U	0.34
C8U U32A	0.1
G21A U43C	0.18
G40C C42A	0.07
G1U G2C	0.16
C13G U34G	0.03
G35U U38C	0.09
U9C G40C	0.03
G1C U34A	0.01
G2C G7A	0.06
A24G U32C	0.24
U9A U28G	0.15
G1C G17U	0.02
G1C G17C	0.06
G1C A39G	0.01
C13A C42G	0.08
A16C G27U	0.14
U32G C46G	0.1

Variant	self-cleavage
C8G A16G	0.11
A6U A25G	0.47
C10A C45G	0.03
C10A C45U	0.07
G22A C31U	0.49
G2A G33C	0.05
A6C C45A	0.47
A26C A39U	0.43
U38A A41G	0.14
A12C G19U	0.03
A6G G35C	0.12
C8G G19C	0.05
G1U C18U	0.51
G29C C37G	0.02
C3U A12G	0.06
G35U U43C	0.05
C37U G44A	0.1
U9G C31A	0.04
C18G C37U	0.09
G27A G44A	0.34
A12U C46U	0.27
A14G C31A	0.09
A4C G36A	0.73
G7A G21A	0.34

Variant	self-cleavage
A16U G17U	0.03
G35U G44A	0.13
C15G A24G	0.03
A24U G30C	0.62
G21A C42A	0.54
A16C A24G	0.04
A11G A26C	0.03
G1U G30U	0.59
C8A A11G	0.04
A24G C46G	0.83
U20A U38A	0.43
G7U U9G	0.09
A11G G36A	0.02
A12C C15U	0.03
G2U G44C	0.09
G33A C45G	0.07
G29U U32G	0.27
U28G U34C	0.11
A4G A11U	0.05
G7U G35A	0.1
A6U U28C	0.74
G17U G35A	0.07
G2U C23U	0.15
C10A A39U	0.24

Variant	self-cleavage
G7C G44U	0.15
A14G U32A	0.06
A12C G17C	0.02
A6C U34A	0.05
U20C C45A	0.34
A24C A41U	0.26
C8G U20A	0.08
C18U A39G	0.08
C13A G29C	0.06
C13A G17U	0.11
G33U U38A	0.08
G2A C18A	0.16
G17U U32C	0.18
G22U A24G	1.25
U9C G27U	0.04
A11U G30U	0.18
A6U C15G	0.07
G5C G44U	0.09
A26C G30A	1.12
G5U A11G	0.02
G1A C45A	0.82
C3G C37G	0.13
C3G C37U	0.5
G27U C46A	1.11

Variant	self-cleavage
G21C G36U	0.03
G40C C46U	0.08
A6G G44C	0.14
G1A U28G	0.6
G2A G35U	0.41
C42G C45G	0.09
A24U U38A	0.34
A12G A25G	0.03
C37U U38C	0.06
A4G A25G	0.36
C3U G30A	0.75
C3U G30U	0.5
U9G G27A	0.07
G17C U28C	0.36
A24C G36A	0.48
U9A A26C	0.23
G29U G44C	0.44
C13U G40A	0.1
G2U G35C	0.05
C23U U34G	0.3
C15U A39G	0.11
G36A U38G	0.03
A6U G29C	0.34
